Results from the supplement of paper PMC10567573.

B1: TNXB (parent)
chain: FSEIRETSAKVNWMPPPSRADSFK
B2: PBXIP1 (parent)
chain: LQQLRARLQGLEADCVRGPDGVCL

Variants of: B1
Test: protein stability index of a GFP-peptide fusion (GPS, HEK-293T) (PSI 1-6); higher = more stable
Settings: c terminus: a fixed tail appended
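Also: lentivirally expressed fusions sorted by FACS into six bins by GFP to DsRed ratio, PSI derived from sequencing read proportions per bin multiplied by bin number.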

Protein stability index, by site and new letter:
P15: Q 3.36 | L 3.21 | V 3.48 | D 3.85 | A 3.51 | W 2.56 | S 3.15 | R 3.21 | C 2.71 | I 2.18 | F 2.46 | T 3.38 | K 3.33 | H 3.42 | M 3.27 | N 3.12 | G 3.29 | Y 2.22 | E 3.49
S22: C 3.29 | Q 3.42 | Y 3.32 | N 3.38 | R 3.95 | V 2.94 | D 3.62 | E 3.69 | I 3.38 | K 3.58 | G 2.97 | L 3.22 | H 3.27 | M 2.79 | F 2.39 | T 3.26 | P 3.36 | W 2.62 | A 3.32
S18: K 3.57 | C 3.37 | W 1.98 | H 3.3 | Q 3.64 | G 3.51 | V 3.32 | P 3.42 | E 3.67 | T 3.16 | N 3.18 | I 2.46 | F 2.71 | Y 3.5 | M 2.89 | L 2.75 | A 3.68 | D 3.52 | R 3.43
R19: Q 3.6 | Y 3.19 | H 3.15 | P 3.7 | K 3.6 | V 3.38 | A 3.52 | M 3.12 | F 2.49 | W 2.18 | C 3.33 | G 3.43 | E 4.2 | L 2.65 | I 3.12 | N 3.85 | D 4.25 | S 3.73 | T 3.71
P17: W 2.79 | M 2.97 | D 3.84 | F 3.19 | E 4.09 | G 3.81 | Q 3.24 | K 3.43 | A 3.65 | S 3.44 | V 3.23 | Y 2.67 | H 3.08 | I 3.36 | L 2.86 | C 2.81 | R 3.3 | N 3.35 | T 3.99
A20: E 3.6 | K 3.8 | P 3.13 | S 3.5 | T 2.8 | I 3.05 | Y 2.93 | R 3.61 | N 3.27 | L 2.9 | F 2.73 | M 2.79 | G 3.24 | H 3.45 | W 2.92 | V 2.46 | C 3.71 | D 3.88 | Q 3.27
V11: S 3.87 | T 3.72 | Y 2.7 | W 2.73
F23: R 4.44 | Y 3.09 | T 4.06 | C 4.22 | K 4.12 | Q 3.58 | I 3.5 | W 3.32 | D 4.56 | H 4.12 | A 4.04 | V 4.07 | G 3.24 | E 4.33 | L 3.91 | M 3.82 | S 3.89 | N 4.1 | P 4.55
W13: V 4.17 | Q 4.23 | N 4.49 | T 4.03 | F 3.57 | I 4.47 | R 4.21 | M 3.98 | K 4.55 | G 4.15 | P 4.43 | L 4 | Y 4.06 | D 4.8 | A 4.11 | C 4.27 | H 3.61 | S 3.83 | E 4.94
N12: G 3.35 | R 2.62 | Q 3.04 | M 2.04 | V 1.95 | I 3.24 | E 3.46 | S 3.38 | T 2.9 | H 2.71 | P 3.17 | A 2.14 | K 2.88 | D 3.83 | W 2.2 | Y 2.09 | F 2.96
D21: Q 3.5 | N 3.34 | R 3.52 | L 3.06 | T 2.6 | P 3.61 | F 2.02 | K 3.76 | H 3.13 | E 3.79 | Y 3.01 | A 3.17 | W 2.45 | I 3.05 | C 2.79 | S 3.62 | V 3.28 | G 3.52 | M 3.41
K24: A 2.92 | V 2.63 | N 3.43 | D 3.41 | Y 2.64 | F 2.47 | L 2.42 | I 2.44 | C 2.94 | S 3.29 | Q 3.33 | W 1.69 | E 3.21 | R 3.29 | G 3.35 | M 2.48 | P 3.14 | T 3.37 | H 2.73
P16: K 3.33 | L 3.02 | W 1.82 | R 2.87 | G 2.8 | T 3.27 | Y 2.67 | M 2.89 | Q 3.23 | E 3.52 | I 3.15 | C 3.14 | H 3.05 | N 2.89 | F 2.67 | A 3.05 | V 3.41 | D 3.03 | S 3.69
M14: A 3.17 | I 3.11 | R 4.26 | Q 3.92 | V 2.96 | L 3.31 | H 3.44 | S 3.92 | G 3.63 | C 2.63 | N 3.4 | W 2.98 | K 3.52 | E 4.11 | Y 2.64 | F 3.13 | D 3.91

Variants of: B2
Test: as above
Settings: c terminus: a fixed tail appended

Protein stability index, by site and new letter:
Q9: C 3.05 | H 2.42 | P 2.8
G18: D 3.74 | H 2.39 | C 2.23
V22: Y 1.52 | L 1.46 | S 3.23 | M 2.13
E12: Y 2.73 | Q 2.26
L1: T 3.66 | P 4.19 | K 3.5
R5: N 2.87 | T 3.04 | F 2.14 | H 2.61 | E 3.78
D20: I 1.9 | W 1.84 | P 1.5
C23: Y 2.29 | L 2.48 | M 2.23
R7: D 3.89 | T 2.52 | Q 3.33 | E 4.03 | Y 1.73
L24: T 1.74 | W 2.15 | V 1.79 | S 2.89
Q2: F 3.06 | R 1.82 | I 1.3 | T 2.61 | S 2.63 | L 1.41 | M 1.74
L4: V 1.81 | M 2.03 | S 3.01 | D 4.69 | P 2.42 | N 3.83
D14: N 1.75 | Q 2.21 | R 2.93
G21: T 1.99 | N 2.69
Q3: I 1.68
A6: H 2.47 | P 3.61 | S 3.27 | R 1.32
L11: K 3.69 | I 1.93 | P 2.07
V16: C 1.78 | N 2.62 | F 2.28 | T 2.51 | L 1.59 | E 3.21 | S 1.84
L8: F 2.29 | N 3.94 | E 5.35 | K 3.57 | T 3.43
P19: K 1.98 | V 2.65 | D 2.23
C15: I 1.87 | D 2.65 | K 2.29 | N 1.95 | A 2.6 | Q 1.99
R17: E 1.86 | T 3.19 | Y 2.47 | W 1.81
G10: D 2.35
